Measurements taken from the supplement of paper PMC7877785.
± gives the uncertainty stated by the source.

Assay: self-splicing fitness, log relative to wild type (ln ratio); higher = more splicing; Tetrahymena group I intron in knt gene, E. coli kanamycin selection, DiMSum; sequences stand for … in CUCUCU…GGAGGGAAAAGUUAUCAGGCAUGCACCUGGUAGCUAGUCUUUAAACCAAUAGAUUGCAUCGGUUUAAAAGGCAAGACCGUCAAAUUGCGGGAAAGGGGUCAACAGCCGUUCAGUACCAAGUCUCAGGGGAAACUUUGAGAUGGCCUUGCAAAGGGUAUGGUAAUAAGCUGACGGACAUGGUCCUAACCACGCAGCCAAGUCCUAAGUCAACAGAUCUUCUGUUGAUAUGGAUGCAGUUCACAGACUAAAUGUCGGUCGGGGAAGAUGUAUUCUUCUCAUAAGAUAUAGUCGGACCUCUCCUUAAUGGGAGCUAGCGGAUGAAGUGAUGCAACACUGGAGCCGCUGGGAACUAAUUUGUAUGCGAAAGUAUAUUGAUUAGUUUUGGAGUACUCGUGGUCG
In short: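 Colonies from six replicate transformations of E. coli BL21(DE3) were pooled and amplicon-sequenced on an Illumina HiSeq 2500. The library placed an intron with all eight P1ex-region nucleotides randomised inside the knt kanamycin-resistance gene on pET-22b(+), and cells grew overnight at 37°C or 30°C on LB agar with or without 25 μg/mL kanamycin (plus 100 μg/mL carbenicillin, 50 μM IPTG, 0.2% rhamnose). Fitness is the DiMSum error-weighted combination of wild-type-normalised replicate fold changes, kanamycin versus none.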

| Sequence | self-splicing fitness (ln) (30 °C) | self-splicing fitness (ln) (37 °C) |
| --- | --- | --- |
| GGCCAGCAAUAUUACGGGAG | -2.14 ± 0.13 | -0.796 ± 0.12 |
| GGCCAGCAAUAUUACGGUGU | -0.779 ± 0.058 | -0.114 ± 0.07 |
| GGCCAGCAAUAUUACGUAAG | -1.3 ± 0.084 | -1.25 ± 0.15 |
| GGCCAGCAAUAUUACGUACA | -2.75 ± 0.17 | -1.71 ± 0.15 |
| GGCCAGCAAUAUUACGUCGC | -1.17 ± 0.11 | -0.0357 ± 0.11 |
| GGCCAGCAAUAUUACGUGCU | -3.59 ± 0.15 | -2.52 ± 0.2 |
| GGCCAGCAAUAUUACGUUAA | -3.51 ± 0.29 | -2.62 ± 0.19 |
| GGCCAGCAAUAUUACGUUUU | -1.31 ± 0.065 | -1.22 ± 0.079 |
| GGCGAGCAAUAUUACGAAAC | -2.42 ± 0.15 | -0.0615 ± 0.14 |
| GGCGAGCAAUAUUACGAAUU | -1.66 ± 0.14 | -0.459 ± 0.17 |
| GGCGAGCAAUAUUACGACAC | -1.12 ± 0.19 | -0.253 ± 0.26 |
| GGCGAGCAAUAUUACGACCC | -3.18 ± 0.44 | -1.25 ± 0.5 |
| GGCGAGCAAUAUUACGACCU | -0.951 ± 0.19 | -0.976 ± 0.39 |
| GGCGAGCAAUAUUACGAGAC | -1.31 ± 0.49 | – |
| GGCGAGCAAUAUUACGAGCA | -1.44 ± 0.25 | -0.374 ± 0.28 |
| GGCGAGCAAUAUUACGAGGU | -3.57 ± 0.36 | -0.907 ± 0.22 |
| GGCGAGCAAUAUUACGCAGU | -1.29 ± 0.43 | -0.76 ± 0.39 |
| GGCGAGCAAUAUUACGCGGG | – | -2.89 ± 0.38 |
| GGCGAGCAAUAUUACGCUCA | -1.02 ± 0.11 | 0.00865 ± 0.12 |
| GGCGAGCAAUAUUACGCUUA | -1.63 ± 0.15 | -0.623 ± 0.15 |
| GGCGAGCAAUAUUACGCUUG | – | -2.71 ± 0.48 |
| GGCGAGCAAUAUUACGGCCA | -1.39 ± 0.21 | -1.35 ± 0.27 |
| GGCGAGCAAUAUUACGGCCG | -2.11 ± 0.16 | -0.882 ± 0.2 |
| GGCGAGCAAUAUUACGGCUU | -0.682 ± 0.2 | -0.0819 ± 0.35 |
| GGCGAGCAAUAUUACGGGGG | -3.33 ± 0.2 | -2.64 ± 0.28 |
| GGCGAGCAAUAUUACGUAUU | -2.29 ± 0.14 | -0.757 ± 0.12 |
| GGCGAGCAAUAUUACGUCGA | -2.43 ± 0.23 | -0.47 ± 0.15 |

| Sequence | self-splicing fitness (ln) (30 °C) | self-splicing fitness (ln) (37 °C) |
| --- | --- | --- |
| GGCGAGCAAUAUUACGUGGC | -3.3 ± 0.25 | -1.73 ± 0.25 |
| GGCGAGCAAUAUUACGUUCU | -1.02 ± 0.051 | -0.335 ± 0.07 |
| GGCGAGCAAUAUUACGUUGU | -3.25 ± 0.18 | -2.48 ± 0.25 |
| GGCUAGCAAUAUUACGAAGG | – | -0.668 ± 0.29 |
| GGCUAGCAAUAUUACGACCA | -1.49 ± 0.3 | -1.43 ± 0.31 |
| GGCUAGCAAUAUUACGACCG | -0.745 ± 0.14 | -0.188 ± 0.21 |
| GGCUAGCAAUAUUACGACGG | -3.75 ± 0.37 | -2.18 ± 0.46 |
| GGCUAGCAAUAUUACGAGGA | -1.17 ± 0.17 | -1.47 ± 0.14 |
| GGCUAGCAAUAUUACGAGUC | – | -1.08 ± 0.26 |
| GGCUAGCAAUAUUACGCCGC | -3.44 ± 0.41 | – |
| GGCUAGCAAUAUUACGCCGU | -1.49 ± 0.11 | -0.833 ± 0.17 |
| GGCUAGCAAUAUUACGCCUC | -1.35 ± 0.18 | -0.927 ± 0.23 |
| GGCUAGCAAUAUUACGCGCU | -2.76 ± 0.25 | -2.42 ± 0.3 |
| GGCUAGCAAUAUUACGCUAU | -1.3 ± 0.11 | 0.0903 ± 0.12 |
| GGCUAGCAAUAUUACGCUGG | -4.2 ± 0.42 | – |
| GGCUAGCAAUAUUACGCUUA | -0.872 ± 0.1 | -0.117 ± 0.11 |
| GGCUAGCAAUAUUACGCUUU | -0.428 ± 0.083 | 0.202 ± 0.099 |
| GGCUAGCAAUAUUACGGCGC | 0.164 ± 0.14 | 0.272 ± 0.16 |
| GGCUAGCAAUAUUACGGGAU | -1.89 ± 0.089 | -1.03 ± 0.11 |
| GGCUAGCAAUAUUACGGGCA | 0.122 ± 0.082 | 0.0658 ± 0.092 |
| GGCUAGCAAUAUUACGGGCC | – | -1.98 ± 0.42 |
| GGCUAGCAAUAUUACGGGGA | -2.17 ± 0.17 | -1.25 ± 0.17 |
| GGCUAGCAAUAUUACGGGGC | -3.67 ± 0.47 | -2.08 ± 0.28 |
| GGCUAGCAAUAUUACGGUAC | -1.91 ± 0.17 | -0.733 ± 0.14 |
| GGCUAGCAAUAUUACGGUCA | -0.918 ± 0.1 | -0.851 ± 0.085 |
| GGCUAGCAAUAUUACGGUCC | -4.11 ± 0.33 | -2.97 ± 0.28 |
| GGCUAGCAAUAUUACGGUGA | -0.0349 ± 0.072 | 0.281 ± 0.086 |

| Sequence | self-splicing fitness (ln) (30 °C) | self-splicing fitness (ln) (37 °C) |
| --- | --- | --- |
| GGCUAGCAAUAUUACGGUUG | -0.166 ± 0.076 | -0.197 ± 0.098 |
| GGCUAGCAAUAUUACGUAAU | -0.265 ± 0.1 | 0.283 ± 0.12 |
| GGCUAGCAAUAUUACGUACG | -0.805 ± 0.1 | 0.365 ± 0.11 |
| GGCUAGCAAUAUUACGUAGU | -3.29 ± 0.17 | -2.04 ± 0.2 |
| GGCUAGCAAUAUUACGUCUA | -0.349 ± 0.13 | -0.105 ± 0.11 |
| GGCUAGCAAUAUUACGUGCC | -2.22 ± 0.25 | – |
| GGCUAGCAAUAUUACGUUAC | -1.55 ± 0.069 | -0.888 ± 0.093 |
| GGCUAGCAAUAUUACGUUCC | -1.62 ± 0.11 | -0.39 ± 0.11 |
| GGGAAGCAAUAUUACGAAUG | – | -0.92 ± 0.34 |
| GGGAAGCAAUAUUACGAAUU | -0.943 ± 0.23 | -0.115 ± 0.21 |
| GGGAAGCAAUAUUACGACAA | -2 ± 0.2 | -1.34 ± 0.19 |
| GGGAAGCAAUAUUACGACUA | -0.9 ± 0.15 | 0.352 ± 0.17 |
| GGGAAGCAAUAUUACGACUG | -0.222 ± 0.088 | -0.457 ± 0.11 |
| GGGAAGCAAUAUUACGAGUA | – | -2.29 ± 0.36 |
| GGGAAGCAAUAUUACGAUAA | -1.61 ± 0.11 | -0.785 ± 0.15 |
| GGGAAGCAAUAUUACGCUCA | – | -0.0289 ± 0.38 |
| GGGAAGCAAUAUUACGCUGC | -2.83 ± 0.48 | – |
| GGGAAGCAAUAUUACGGAAC | -2.09 ± 0.2 | -2.13 ± 0.27 |
| GGGAAGCAAUAUUACGGAUU | -0.965 ± 0.07 | -0.737 ± 0.1 |
| GGGAAGCAAUAUUACGGCUC | -0.727 ± 0.12 | 0.0488 ± 0.17 |
| GGGAAGCAAUAUUACGGGCC | -2.03 ± 0.14 | -0.949 ± 0.13 |
| GGGAAGCAAUAUUACGUAGG | -3.64 ± 0.32 | -0.93 ± 0.11 |
| GGGAAGCAAUAUUACGUCUC | -3.97 ± 0.37 | -3 ± 0.35 |
| GGGAAGCAAUAUUACGUGCG | -1.4 ± 0.11 | -0.371 ± 0.13 |
| GGGAAGCAAUAUUACGUUAC | -2.75 ± 0.15 | -1.15 ± 0.14 |
